Measurements: the DeepSol protein solubility set

Test: soluble on expression in E. coli; label from the status in PepcDB or PDB records

**Q.** Which “soluble on expression in E. coli” value does the source give for “MSLDIEQQFLNDLDNQLWRAADKLRSNLDAANYKHVVLGLIFLKYVSDAFEERQQELTELFQKDDDDNIYYLPREDYDSDEAYQQAIAEELEIGDYYTEKNVFWVPKTARWNKLRDVITLPTGSVIWQDEQGEDVKLRSVSWLIDNAFDDIEKANPKLKGILNRISQYQLDADKLIGLINEFSLTSFNNPEYNGEKLNLKSKDILGHVYEYFLGQFALAEGKQGGQYYTPKSIVTLIVEMLEPYKGRVYDPAMGSGGFFVSSDKFIEKHANVKHYNASEQKKQISVYGQESNPTTWKLAAMNMVIRGIDFNFGKKNADSFLDDQHPDLRADFVMTNPPFNMKDWWHEKLADDPRWTINTNGEKRILTPPTGNANFAWMLHMLYHLAPTGSMALLLANGSMSSNTNNEGEIRKTLVEQDLVECMVALPGQLFTNTQIPACIWFLTKDKNAKNGKRDRRGQVLFIDARKLGYMKDRVLRDFKDEDIQKLADTFHNWQQEWSEENNQAGFCFSADLALIRKNDFVLTPGRYVGAEAEEDEGHHHHHH” here?
**A.** soluble

**Q.** Which “soluble on expression in E. coli” value does the source give for “MSLDKEYRITLLHNVAHYGHAEATRILLAAGARVNAVNGEGNTPLFAAVHEGHDDVARILLDAGADVTIANSYWYTPLREACRRGNTGMVRLLLEKGADVNITDNKGFTPLHAAVSAEALEAATLILDSGADINIAGRYGDTPLHYAVGLGYEEFVRLFLARGADPTIRNDRGLTPRQLAEERGFASIVELFRNWGKNTEGHHHHHH” here?
**A.** soluble

**Q.** For “MSLDKFQLKGKVALVTGCKRGIGKAMAIGLAEAGADIIGVSASLELEGSSVEQAIRATGRNFKAYQCDFSDRKSLYNFINSVKADYSRIDILVNNAGTILRTPAAEHPDEMWDKVIEVNQNAQFILTRELGKEMVSRGEGKVIFTASLLTFQGGITVPGYAASKGAIGQMTMAFANEWASKGVNVNAIAPGYISTDNTEALRNDPDRSASILSRIPAGRWGEAEDFAGPVVFLASEAAAYMHGSIMLVDGGWMGREGHHHHHH”, which “soluble on expression in E. coli” value is on record?
**A.** soluble

**Q.** For “MSLDLAADILVADAHMHTNPTRGLGAREVARRFRREGGWFAALLTLTTWSYGLAPTGVEAYRRMYEIHLRECRAAREEGLRVACFAGIHPAEVDRMIDKHRQPPEKALETALEAVEVLRRLCREGAIDGVGEVGRQHYRTSPLRVAIAEVVLEEAAAAALEEGCLLQLHLENEGPATVETVDRILRRAGATGARRGMVIFHHATLRVAKEAVARGYNATIPGVPKLLEHAAANEPPDYMVESDYLDDPARPGAVVEPWKMAQKLREIASRTPETREWVRRTNIDLVERVFQASPPEGHHHHHH”, which “soluble on expression in E. coli” value is on record?
**A.** soluble

**Q.** Which “soluble on expression in E. coli” value does the source give for “MSLDNFLTTGFLDIIPLSQPLEFRREGLQHGVLDKLRSGKYPQQASLNLLRQPVEECRKMMFSFIQQAMADGLRNVLIIHGKGREDKSHANIVRSYVARWLTEFDDVQAYCTALPHHGGSGACYVALRKTAQAKQENWERHAKRSREGHHHHHH” here?
**A.** not soluble

**Q.** For “MSLDPRKVNELRAFVKMCKQDPSVLHTEEMRFLREWVESMGGKVPPATQKAKSEENTKEEKPDSKKVEEDLKADEPSSEESDLEIDKEGVIEPDTDAPQEMGDENAEITEEMMDQANDKKVAAIEALNDGELQKAIDLFTDAIKLNPRLAILYAKRASVFVKLQKPNAAIRDCDRAIEINPDSAQPYKWRGKAHRLLGHWEEAAHDLALACKLDYDEDASAMLKEVQPRAQKIAEHRRKYERKREEREIKERIERVKKAREEHERAQREEEARRQSGAQYGSFPGGFPGGMPGNFPGGMPGMGGGMPGMAGMPGLNEILSDPEVLAAMQDPEVMVAFQDVAQNPANMSKYQSNPKVMNLISKLSAKFGGQAEGHHHHHH”, which “soluble on expression in E. coli” value is on record?
**A.** soluble

**Q.** Which “soluble on expression in E. coli” value does the source give for “MSLDRLKQSLLDAPIIEKDGYHYFVHPISDGVPMLEPELLREIVIRIIRKAELDEVDKIVTPAAMGIHISTAVSLMTDIPIVVIRKREYGLPGEVALSQETGYSENEMYINDVHEGDRVLVLDDVLSTGGTLRAITDALEQTGADVADVLAVIKKAGPNELDDTDMDVRTLINVDEGHHHHHH” here?
**A.** soluble

**Q.** With “MSLDSGTLGTPPPEQGPTPPTTLPDVPAPVIPSASVTSAASDFLAALHPPVTVPDPAPPPPPAPAAGNPPDTVTGDSVLQRILRGPTGPGTTSLAPAVRYGRQPGPEAPASAPPAAGRAVPGLYHHPVPEPDPVRVEEVSRRIKRWAEDEVQLYPEEWEGQFDGFSVGRYMVGCHPDAPTVDHLMLATRLMVAENAVDDCYCEDHGGSPVGLGGRLLLAHTAIDHFHSTAEYTPTWQASLAADAPRRAYDSAMGYFVRAATPSQSDRYRHDMARLHLGYLAEGAWAQTGHVPEVWEYLAMRQFNNFRPCPTITDTVGGYELPADLHARPDMQRVIALAGNATTIVNDLYSYTKELNSPGRHLNLPVVIAEREQLCERDAYLKAVEVHNELQHSFEAAAADLAEACPLPPVLRFLRGVAAWVDGNHDWHRTNTYRYSLPDFWEGHHHHHH” as the sequence, how does the “soluble on expression in E. coli” value read?
**A.** soluble

**Q.** For “MSLDVGGSERIPSEMRAWEVTSPAPIDSSPSPIHFVKHPVPVPKTSEVLVRVISCGICHTDLHVAEGDLPVHHPHVIPGHEIIGRVVANGPQAGRFNLGDRIGVPWLRWTCGVCTYCRSGKENLCPNSLYTGWDHDGGYAEYVTVPEGFAYRIPSAFNSVTAAPLLCAGIIGYHAFRRANVPAGGRLGLYGFGGSAHLAAQIAIAQGIEVHVFTRGKDAQRFALELGAASAQGVYDPSPVSLDSSILFAPVGDIVPKALENLAAGGTLALAGIHLTDVPSLNYQNHLFHEKVLTSVESNTRRDGEEFLTLADRLKIHPKTTEYPFEKADEALRHLSHGDMQGACVLRISEGHHHHHH”, which “soluble on expression in E. coli” value is on record?
**A.** not soluble

**Q.** For “MSLDWDSVHVPGPHAMTIQELVDYVNARQKQGIYEEYEDIRRENPVGTFHCSMSPGNLEKNRYGDVPCLDQTRVKLTKRSGHTQTDYINASFMDGYKQKNAYIGTQGPLENTYRDFWLMVWEQKVLVIVMTTRFEEGGRRKCGQYWPLEKDSRIRFGFLTVTNLGVENMNHYKKTTLEIHNTEERQKRQVTHFQFLSWPDYGVPSSAASLIDFLRVVRNQQSLAVSNMGARSKGQCPEPPIVVHCSAGIGRTGTFCSLDICLAQLEELGTLNVFQTVSRMRTQRAFSIQTPEQYYFCYKAILEFAEKEGMVSSGQNLLAVESQEGHHHHHH”, which “soluble on expression in E. coli” value is on record?
**A.** soluble

**Q.** For “MSLEALFNPKSIAVIGASSKPGKIGYAIMKNLIEYGYEGKIYPVNIKGGEMEISGRKFKVYKSILEVPDEVDMAVIVVPAKSVPEVVEECGKKGVKVAPIISSGFGELGEEGKKVEQQLVETARKYGMRILGPNIFGVVYTPAKLNATFGPTDVLPGPLALISQSGALGIALMGWTILEKIGLSAVVSVGNKADIDDADLLEFFKDDENTKAILIYMEGVKDGRRFMEVAKEVSKKKPIIVIKAGRSERGAKAAASHTGSLAGSDTIYSAAFKQTGVLRALTIGEAFDWARALSNLPEPQGENVVIITNGGGIGVMATDAAEEEGLHLYDDLEQLKIFANHMPPFGSYKNPVDLTGMADAKSYEGAIRDALAHPDMHSIIVLYCQTAVLDPRELADVIIREYNESGRKKPLVVAIVGGIEAKQAIDVLNENGIPAYPEPERAVKALSALYKWSKWKAKHK”, which “soluble on expression in E. coli” value is on record?
**A.** soluble

**Q.** Which “soluble on expression in E. coli” value does the source give for “MSLEDQALFGYARYGKVDDVVYPSVIASGNGINYGDSDIEILGDRIPRQILYPAKIKQEILETDKLVIIPNGAELVRKPKDLVRIIMDIHSRYGFSKLIMISGISDPYSIPALVYLGISFFDSSILEMEGKMGYRFTPFGIEKADHDVSSENAIFISDMMHIIQRSISDGTLRELIEKAVISSKAAEMVRIADYSYYQDFESVFPVRTPYIKANTIEDLYRPDLIRYRNYISESYVKPDADIALILPCSAKKPYSRSKSHQKVIGALGNLRRFIHEVIVTSPIGIVPRDLEETYPARFYDIPVIGLWYEDEKIMMKRMMSSYMGRNRYRKVIAFIPEDLDFITEAIPYPHEVIEFKSSNLQRLREVIQREIAGGKAVNQKVAKYNSILRYQFGEWILPLVSGYTIRRNYNQDMIVKDGKILFVYNENLGKFTINKASADMFIKNGKFLVEIDDFKPTSNVYAMGVVDATEDIRQEDEVVLVHSGEVRGVGIAKMPARAMIELKKGIAVKVREGHHHHHH” here?
**A.** soluble

**Q.** For “MSLEGKTIGITAIGTDHDWDLKAYQAQIAEIERLGGTAIALDAGRNDQTQVSQIQTLIAQKPDAIIEQLGNLDVLNPWLQKINDAGIPLFTVDTATPHAINNTTSNNYSIGAELALQMVADLGGKGNVLVFNGFYSVPVCKIRYDQMKYVLEAFPDVKIIEPELRDVIPNTIQSAYSNVTDMLTKYPNEGDVGAIWACWDVPMIGATQALQAAGRTDIRTYGVDGSPEFVEMVADPESPAGAVAAQQPSEIGKLAVQNVARHLAGQEVKPFTFAPAVLITKENAAETAADFLPKEGHHHHHH”, which “soluble on expression in E. coli” value is on record?
**A.** soluble
